{"source": "paper PMC12203913", "about": "“XPC-RAD23B enhances UV-DDB binding to DNA to facilitate lesion search in nucleotide excision repair” (Nucleic Acids Research, 2025)", "molecules": {"B1": {"name": "CPD-containing 39 bp DNA (λ-I3_CPD / λ-I3_comp_FAM) (dsDNA)", "DNA 1": "TGCATGCGGCCGCTCTTCCCTTGGTGCGATCGCTCTTCG", "DNA 2": "CGAAGAGCGATCGCACCATGGGAAGAGCGGCCGCATGCA", "modifications": "cyclobutane pyrimidine dimer T21^T22 in strand 1; 5'-phosphate on strand 1"}, "B2": {"name": "undamaged 39 bp DNA (λ-I3_Dup / λ-I3_comp_FAM) (dsDNA)", "DNA 1": "B1 DNA 1 with T21A", "DNA 2": "B1 DNA 2", "modifications": "5'-phosphate on strand 1"}, "B3": {"name": "XPC-RAD23B (complex, human)", "chain 1": "MARKRAAGGEPRGRELRSQKSKAKSKARREEEEEDAFEDEKPPKKSLLSKVSQGKRKRGCSHPGGSADGPAKKKVAKVTVKSENLKVIKDEALSDGDDLRDFPSDLKKAHHLKRGATMNEDSNEEEEESENDWEEVEELSEPVLGDVRESTAFSRSLLPVKPVEIEIETPEQAKTRERSEKIKLEFETYLRRAMKRFNKGVHEDTHKVHLLCLLANGFYRNNICSQPDLHAIGLSIIPARFTRVLPRDVDTYYLSNLVKWFIGTFTVNAELSASEQDNLQTTLERRFAIYSARDDEELVHIFLLILRALQLLTRLVLSLQPIPLKSATAKGKKPSKERLTADPGGSSETSSQVLENHTKPKTSKGTKQEETFAKGTCRPSAKGKRNKGGRKKRSKPSSSEEDEGPGDKQEKATQRRPHGRERRVASRVSYKEESGSDEAGSGSDFELSSGEASDPSDEDSEPGPPKQRKAPAPQRTKAGSKSASRTHRGSHRKDPSLPAASSSSSSSKRGKKMCSDGEKAEKRSIAGIDQWLEVFCEQEEKWVCVDCVHGVVGQPLTCYKYATKPMTYVVGIDSDGWVRDVTQRYDPVWMTVTRKCRVDAEWWAETLRPYQSPFMDREKKEDLEFQAKHMDQPLPTAIGLYKNHPLYALKRHLLKYEAIYPETAAILGYCRGEAVYSRDCVHTLHSRDTWLKKARVVRLGEVPYKMVKGFSNRARKARLAEPQLREENDLGLFGYWQTEEYQPPVAVDGKVPRNEFGNVYLFLPSMMPIGCVQLNLPNLHRVARKLDIDCVQAITGFDFHGGYSHPVTDGYIVCEEFKDVLLTAWENEQAVIERKEKEKKEKRALGNWKLLAKGLLIRERLKRRYGPKSEAAAPHTDAGGGLSSDEEEGTSSQAEAARILAASWPQNREDEEKQKLKGGPKKTKREKKAAASHLFPFEQL", "chain 2": "MQVTLKTLQQQTFKIDIDPEETVKALKEKIESEKGKDAFPVAGQKLIYAGKILNDDTALKEYKIDEKNFVVVMVTKPKAVSTPAPATTQQSAPASTTAVTSSTTTTVAQAPTPVPALAPTSTPASITPASATASSEPAPASAAKQEKPAEKPAETPVATSPTATDSTSGDSSRSNLFEDATSALVTGQSYENMVTEIMSMGYEREQVIAALRASFNNPDRAVEYLLMGIPGDRESQAVVDPPQAASTGAPQSSAVAAAAATTTATTTTTSSGGHPLEFLRNQPQFQQMRQIIQQNPSLLPALLQQIGRENPQLLQQISQHQEHFIQMLNEPVQEAGGQGGGGGGGSGGIAEAGSGHMNYIQVTPQEKEAIERLKALGFPEGLVIQAYFACEKNENLAANFLLQQNFDED"}}, "key": {"[1]": {"target": "T1, UV-DDB (DDB1-DDB2);XPC-RAD23B (Homo sapiens;Homo sapiens, UniProt Q16531;Q92466;Q01831;P54727 1-1140;1-427;1-940;1-409, |)", "T1 sequence (Q16531 whole entry, chain 1 of 2)": "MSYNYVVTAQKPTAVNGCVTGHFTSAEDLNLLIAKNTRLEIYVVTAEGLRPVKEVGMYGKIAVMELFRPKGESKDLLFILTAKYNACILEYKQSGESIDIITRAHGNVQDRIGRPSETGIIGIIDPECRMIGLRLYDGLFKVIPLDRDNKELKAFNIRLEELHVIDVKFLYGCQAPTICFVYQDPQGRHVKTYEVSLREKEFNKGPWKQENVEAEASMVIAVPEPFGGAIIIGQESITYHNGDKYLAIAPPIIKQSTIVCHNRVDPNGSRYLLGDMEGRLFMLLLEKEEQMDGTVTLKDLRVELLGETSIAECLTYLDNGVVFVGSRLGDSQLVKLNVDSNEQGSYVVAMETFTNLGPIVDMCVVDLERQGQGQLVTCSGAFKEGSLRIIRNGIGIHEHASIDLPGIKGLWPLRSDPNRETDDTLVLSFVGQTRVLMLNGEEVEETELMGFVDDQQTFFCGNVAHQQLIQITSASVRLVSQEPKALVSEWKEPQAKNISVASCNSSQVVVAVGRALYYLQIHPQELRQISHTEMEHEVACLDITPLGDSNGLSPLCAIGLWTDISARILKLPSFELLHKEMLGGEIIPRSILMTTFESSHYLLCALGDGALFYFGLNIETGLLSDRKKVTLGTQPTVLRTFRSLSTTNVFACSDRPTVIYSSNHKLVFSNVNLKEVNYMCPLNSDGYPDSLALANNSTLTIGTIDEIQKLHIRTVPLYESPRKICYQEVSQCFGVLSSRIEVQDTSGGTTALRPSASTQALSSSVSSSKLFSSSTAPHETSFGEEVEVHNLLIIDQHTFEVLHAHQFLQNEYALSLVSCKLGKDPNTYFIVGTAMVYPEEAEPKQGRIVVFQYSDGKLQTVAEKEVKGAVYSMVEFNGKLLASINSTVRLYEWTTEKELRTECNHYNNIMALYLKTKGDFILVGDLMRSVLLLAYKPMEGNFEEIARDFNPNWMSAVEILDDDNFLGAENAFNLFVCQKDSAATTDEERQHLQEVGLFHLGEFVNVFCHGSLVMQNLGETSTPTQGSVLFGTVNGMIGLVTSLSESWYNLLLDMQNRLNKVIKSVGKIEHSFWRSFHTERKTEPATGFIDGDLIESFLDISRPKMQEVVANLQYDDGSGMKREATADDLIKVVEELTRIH", "T1 sequence (Q92466 whole entry, chain 2 of 2)": "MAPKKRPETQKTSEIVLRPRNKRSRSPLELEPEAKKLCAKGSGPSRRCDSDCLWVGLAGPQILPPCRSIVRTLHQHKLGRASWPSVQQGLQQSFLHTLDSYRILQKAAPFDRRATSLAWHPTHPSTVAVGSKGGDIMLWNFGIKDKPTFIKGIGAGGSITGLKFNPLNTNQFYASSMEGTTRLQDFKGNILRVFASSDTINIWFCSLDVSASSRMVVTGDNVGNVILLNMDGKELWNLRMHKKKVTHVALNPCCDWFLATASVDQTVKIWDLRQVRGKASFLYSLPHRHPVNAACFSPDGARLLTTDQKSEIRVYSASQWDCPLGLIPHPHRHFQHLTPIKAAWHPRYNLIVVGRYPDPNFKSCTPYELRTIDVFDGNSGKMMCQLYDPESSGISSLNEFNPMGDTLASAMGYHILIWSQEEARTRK", "assay": "single-molecule DNA curtain", "details": "0.2 nM UV-DDB, 0.4 nM XPC-RAD23B, 3-fold more at CPD sites than random sites, three CPDs around 33.5 kbp (33513-33630), EMSA: 50 mM Tris-HCl pH 7.5, 100 mM NaCl, 0.1 mg/ml BSA, 1 mM DTT, 23°C, 45 min, DNA curtains: 10 mM Tris-HCl pH 8.0, 1 mM EDTA, 0.16% BSA, 0-100 mM …"}, "UV-DDB (DDB1-DDB2)": {"target": "UV-DDB (DDB1-DDB2) (Homo sapiens, UniProt Q16531;Q92466 1-1140;1-427)", "sequence (Q16531 whole entry, chain 1 of 2)": "as the sequence (Q16531 whole entry, chain 1 of 2) above", "sequence (Q92466 whole entry, chain 2 of 2)": "as the sequence (Q92466 whole entry, chain 2 of 2) above", "assay": "EMSA; 4 nM DNA, no competitor; EMSA: 50 mM Tris-HCl pH 7.5, 100 mM NaCl, 0.1 mg/ml BSA, 1 mM DTT, 23°C, 45 min; DNA curtains: 10 mM Tris-HCl pH 8.0, 1 mM EDTA, 0.16% BSA, 1 mM DTT, 0-100 mM NaCl, 23°C", "details": "protein: recombinant, tags: 3xHA at N-terminus of DDB1 (1xFLAG removed by PreScission), copies: 1;1, label: 5'-FAM on strand 2, blunt"}, "XPC-RAD23B": {"target": "XPC-RAD23B (Homo sapiens, UniProt Q01831;P54727 1-940;1-409)", "assay": "EMSA; 4 nM DNA, no competitor; EMSA: 50 mM Tris-HCl pH 7.5, 100 mM NaCl, 0.1 mg/ml BSA, 1 mM DTT, 23°C, 45 min; DNA curtains: 10 mM Tris-HCl pH 8.0, 1 mM EDTA, 0.16% BSA, 1 mM DTT, 0-100 mM NaCl, 23°C", "details": "protein: recombinant, tags: 3xFLAG at N-terminus of XPC, copies: 1;1, label: 5'-FAM on strand 2, blunt"}, "[2]": {"target": "T1, UV-DDB (DDB1-DDB2);XPC-RAD23B", "assay": "EMSA; 2 nM XPC-RAD23B, UV-DDB titrated, 10 nM DNA; EMSA: 50 mM Tris-HCl pH 7.5, 100 mM NaCl, 0.1 mg/ml BSA, 1 mM DTT, 23°C, 45 min; DNA curtains: 10 mM Tris-HCl pH 8.0, 1 mM EDTA, 0.16% BSA, 1 mM DTT, 0-100 mM NaCl, 23°C", "details": "protein: recombinant;recombinant; tags: 3xHA at N-terminus of DDB1 (1xFLAG removed by PreScission);3xFLAG at N-terminus of XPC; copies: 1;1;1;1; label: 5'-FAM on strand 2; blunt; T21 of strand 1 faces T of strand 2 (T-T mismatch at the CPD)"}, "[3]": {"target": "T1, UV-DDB (DDB1-DDB2);XPC-RAD23B", "assay": "EMSA; 15 nM XPC-RAD23B, UV-DDB titrated, 10 nM DNA; co-bound band confirmed by native western; EMSA: 50 mM Tris-HCl pH 7.5, 100 mM NaCl, 0.1 mg/ml BSA, 1 mM DTT, 23°C, 45 min; DNA curtains: 10 mM Tris-HCl pH 8.0, 1 mM EDTA, 0.16% BSA, 1 mM DTT, 0-100 mM NaCl, 23°C", "details": "protein: recombinant;recombinant; tags: 3xHA at N-terminus of DDB1 (1xFLAG removed by PreScission);3xFLAG at N-terminus of XPC; copies: 1;1;1;1; label: 5'-FAM on strand 2; blunt; T21 of strand 1 faces T of strand 2 (T-T mismatch at the CPD)"}, "[4]": {"target": "T1, UV-DDB (DDB1-DDB2);XPC-RAD23B", "assay": "EMSA; 2 nM XPC-RAD23B increases UV-DDB binding; EMSA: 50 mM Tris-HCl pH 7.5, 100 mM NaCl, 0.1 mg/ml BSA, 1 mM DTT, 23°C, 45 min; DNA curtains: 10 mM Tris-HCl pH 8.0, 1 mM EDTA, 0.16% BSA, 1 mM DTT, 0-100 mM NaCl, 23°C", "details": "protein: recombinant;recombinant; tags: 3xHA at N-terminus of DDB1 (1xFLAG removed by PreScission);3xFLAG at N-terminus of XPC; copies: 1;1;1;1; label: 5'-FAM on strand 2; blunt"}, "[5]": {"target": "UV-DDB (heterodimer of DDB1 and DDB2) (human, UniProt Q16531 1-1140; Q92466 1-427)", "sequence (Q16531 whole entry, chain 1 of 2)": "as the sequence (Q16531 whole entry, chain 1 of 2) above", "sequence (Q92466 whole entry, chain 2 of 2)": "as the sequence (Q92466 whole entry, chain 2 of 2) above", "assay": "cell-based or functional assay"}, "[6]": {"details": "T21 of strand 1 faces T of strand 2 (T-T mismatch at the CPD)"}}, "note": "Residue numbers refer to the chain shown, from its start."}
{"molecule": "3x CPD λ-DNA (λ-I3)", "values": [{"measurement": "binding signal (fold bound UV-DDB vs no XPC-RAD23B)", "setting": "[1]", "value": 5.5}]}
{"molecule": "B1", "values": [{"measurement": "Kd", "setting": "UV-DDB (DDB1-DDB2); [6]", "value": "~5", "unit": "nM"}, {"measurement": "Kd", "setting": "XPC-RAD23B; [6]", "value": "~7", "unit": "nM"}, {"measurement": "binding signal", "setting": "[2]", "value": "2.5 fold UV-DDB affinity vs no XPC-RAD23B"}, {"measurement": "binding signal", "setting": "[3]", "value": "~4 fold UV-DDB binding vs no XPC-RAD23B"}]}
{"molecule": "B2", "values": [{"measurement": "Kd", "setting": "UV-DDB (DDB1-DDB2)", "value": "~26", "unit": "nM"}, {"measurement": "Kd", "setting": "XPC-RAD23B", "value": "~9", "unit": "nM"}, {"measurement": "binding result", "setting": "[4]", "value": "binds"}]}
{"molecule": "B3", "values": [{"measurement": "EMSA: binding of UV-DDB (0-25 nM) to DNA with 15 nM XPC-RAD23B against none", "setting": "[5]", "value": "~4", "unit": "fold"}]}
